Test results as given in patent US20220096653A1, “CONJUGATE COMPRISING LIGAND AND CEACAM5 ANTIBODY FAB FRAGMENT” (ASTELLAS PHARMA INC., priority 2019, published 2022).
Values joined by “and” are separate entries in the source; they are usually repeats but may differ in a detail not shown here. Equal values may be shown once. Blank lines part the entries; values can stand above or below the molecule they belong to.

Columns and labels:
[1] = tested on: liver metastasis; conditions: compared with the normal liver; cited from earlier work
[2] = mouse, in vivo; cited from earlier work
[3] = target: human cancer-specific MUC1 peptide (PTL 1) (human); assay: ELISA on immobilised human cancer-specific MUC1 peptide, 4-parameter fit; one of 3 runs (Example 6-1)
[4] = target: human cancer-specific MUC1 peptide (PTL 1) (human); assay: ELISA on immobilised human cancer-specific MUC1 peptide, 4-parameter fit; one of 3 runs (Example 6-2)
[5] = target: T1, CEACAM5 (R&D Systems, 4128-CM-050) (human, UniProt P06731 35-685); assay: ELISA on immobilised CEACAM5, 4-parameter fit; one of 2 runs (Example 3-2)
T1 construct: Immobilised on the ELISA plate; also called human CEACAM5
T1 sequence (looked up): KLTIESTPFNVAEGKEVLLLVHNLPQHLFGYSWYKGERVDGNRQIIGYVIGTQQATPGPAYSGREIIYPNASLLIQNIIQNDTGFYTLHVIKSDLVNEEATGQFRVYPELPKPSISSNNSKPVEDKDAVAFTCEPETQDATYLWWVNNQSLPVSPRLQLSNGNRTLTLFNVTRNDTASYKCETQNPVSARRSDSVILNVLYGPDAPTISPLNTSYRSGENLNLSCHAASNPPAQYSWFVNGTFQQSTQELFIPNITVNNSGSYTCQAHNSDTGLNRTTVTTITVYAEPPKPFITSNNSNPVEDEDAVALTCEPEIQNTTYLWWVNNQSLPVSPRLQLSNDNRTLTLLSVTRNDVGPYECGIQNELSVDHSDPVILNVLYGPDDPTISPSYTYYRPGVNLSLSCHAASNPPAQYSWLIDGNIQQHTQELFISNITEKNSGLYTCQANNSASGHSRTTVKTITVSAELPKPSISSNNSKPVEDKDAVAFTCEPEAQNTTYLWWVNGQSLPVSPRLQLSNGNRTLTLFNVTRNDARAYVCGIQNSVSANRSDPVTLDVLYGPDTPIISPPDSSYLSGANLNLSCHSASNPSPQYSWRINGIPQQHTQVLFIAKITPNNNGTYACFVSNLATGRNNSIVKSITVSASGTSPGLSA
Experimental: (§1) Each anti-human CEACAM5 antibody Fab fragment conjugate prepared in Example 2 was subjected to ELISA to evaluate the binding activity thereof to CEACAM5. In the present test, a phosphate buffer (Nacalai Tesque Inc., 0.1 mol/L-Phosphate Buffer Solution (pH 7.2)) prepared to 10 mM by diluting 10-fold with distilled water was used as a solvent for an antigen immobilization liquid, and 20×PBS/Tween 20 Buffer (Thermo Fisher Scientific Inc., 28352) diluted 20-fold with distilled water was used as a wash liquid. In addition, for bovine serum albumin (BSA) used in the present test, 30% Bovine Serum Albumin solution (Sigma-Aldrich, Inc., A9576-50ML) was added in an appropriate proportion for use. CEACAM5 (R&D Systems, 4128-CM-050) was diluted with a 10 mM phosphate buffer (pH 7.2) to 0.1 μg/mL, and added to a Nunc MaxiSorp White 384 plate (Nunc, 4603272) at 30 μL per well, and the plate was incubated overnight at 4° C. for immobilization. The CEACAM5 immobilization liquid was removed by reverse centrifugation, and then blocking was carried out by adding a PBS/Tween 20 buffer containing 5.0% BSA. […] The substrate was incubated at room temperature for 15 minutes, and then a signal value thereof was measured using an Envision counter (PerkinElmer, Inc.).
(§2) The test for each antibody was carried out in duplicate, and the EC₅₀ value was calculated using a 4-parameter logistic curve model.

[6] = target: T1, CEACAM5 (R&D Systems, 4128-CM-050); assay: ELISA on immobilised CEACAM5, 4-parameter fit; geometric mean of 9 runs
Experimental: as §1
The test for each antibody was carried out in duplicate, and an EC₅₀ value was calculated using a 4-parameter logistic curve model.

[7] = target: T1, CEACAM5 (R&D Systems, 4128-CM-050); assay: ELISA on immobilised CEACAM5, 4-parameter fit, duplicate (Example 3-2)
Experimental: as §1, §2

[8] = tested on: human colorectal cancer cell line LS174T cells; assay: Amount of tumor accumulation of Gd-labeled conjugates, LS174T tumor-bearing mice (Example 4-4); conditions: Gd per g of tumor tissue, 24 hours, mean of 3 cases
Experimental: (§3) A Gd-labeled conjugate of the conjugate containing a peptide linker produced in one of the above Examples was administered from the tail vein of tumor-bearing mice so that the protein mass was 0.02 mg (100 μL) per animal. As the tumor-bearing mice used in the present Example, mice (BALB/c nu/nu) that were in a tumor-bearing state brought about by transplanting human colorectal cancer cell line LS174T cells (ATCC(registered trademark); CL-188) at 2.0 to 5.0×10^6 cells/mouse subcutaneously on the back before administration of the sample were used. 24 hours after administration of the sample, the mice were sacrificed, the kidneys and the tumor were removed, and the amounts of Gd in the kidneys and in the tumor were measured using ICP-MS. The present test was carried out in 3 cases in each group, and the mean value of the 3 cases was calculated. The amount of Gd contained per kidney after administration was shown as a percentage of the amount of Gd administered (% of dose/tissue), and the amount of Gd contained per g of tumor tissue was shown as a percentage of the total amount of Gd administered (% of dose/g).

[9] = parameters: species or system mice (BALB/c nu/nu); conditions: mouse, in vivo
Experimental: as §3

[10] = Kidney accumulation evaluation test of Gd-labeled conjugates, normal mice (Example 4-1)
Experimental: A Gd-labeled conjugate of the conjugate containing a peptide linker produced in one of the above Examples was administered from the tail vein of mice (BALB/c or BALB/c nu/nu) so that the protein mass was 0.02 mg (100 μL) per animal. After about 24 hours, the mice were sacrificed and the kidneys were removed, and the amount of Gd in the kidneys was measured using ICP-MS. The present test was carried out in 3 cases in each group, the mean value of the 3 cases was calculated, and the amount of Gd contained per kidney after administration was shown as a percentage (% of dose/tissue) of the total amount of Gd administered.
Based on the percentage of the control conjugate (% of dose/tissue), the proportion of decrease in the amount of Gd contained in the kidneys of each of the conjugates having a peptide linker was determined and shown in Table 28.

EC50 [3]: 0.06 nM and 0.14 nM
EC50 [4]: 0.06 nM and 0.14 nM
B1: anti-human MUC1 antibody Fab fragment P10-2 (Fab, V domains shown)
VH: QVQLVQSGAEVKKPGASVKVSCKASGYTFTNYGLSWVRQAPGQGLEWMGENHPGSGIIYHNEKFRGRVTLTADRSTSTAYMELSSLRSEDTAVYYCARSSGTRGFDYWGQGTLVTVSS
VL: DVVMTQTPLSLSVTPGQPASISCRSSQSIVHSNGNTYLEWYLQKPGQSPQLLIYRVSNRFSGVPDRFSGSGSGTDFTLKISRVEAEDVGVYYCFQGSHGPWTFGQGTKLEIKR
modifications: glutamine of amino acid 1 modified to pyroglutamic acid (as Fab^5 is defined in paragraph 370)

EC50 [5]: 0.14 nM and 0.21 nM
EC50 [6]: 0.2 nM
B2: anti-human CEACAM5 antibody Fab fragment PB009-01 (Fab, V domains shown)
VH: EVQLVESGGGLVQPGGSLRLSCAASGFNIRDTYMHWVRQAPGKGLEWVARIDPANGNSRYVPKFQGRFTISADTSRNTAYLQMNSLRAEDTAVYYCAPFGYYVSDYAMAYWGQGTLVTVSS
VL: DIQLTQSPSSLSASVGDRVTITCRAGESVDIFGVGFLHWYQQKPGKAPKLLIYRASNLESGIPSRFSGSGSRTDFTLTISSLQPEDFATYYCQQTNEDPYTFGQGTKVEIKR
notes: Humanized from mouse T84.66; also called Fab^2; Fab^2 fragment having no labeling portion

EC50 [7]: 0.16 nM
B4: [Gd/DOTA-NH-CH2-(1,4-Ph)-NH-C(═O)-Met-Ile-NH-(CH2)2-(A-4 and/or A-5)]p-Fab^2 (Fab, V domains shown)
VH: B2 VH
VL: B2 VL
modifications: labeling may sit on this chain; sites not stated; labeling portion (MW 1092) on amino groups of the Fab, sites and chain not stated; 1-4 per Fab by MS
notes: also called Ex-No 66; Conjugate No. 66

The remaining lines, values behind:

Molecule: CEA-Scan: mouse monoclonal antibody NP-4 Fab′ labeled with ^99mTc; FDA-approved diagnostic drug for colorectal cancer
uptake into lesion sites [1]: does not exceed the uptake into the normal liver

Molecule: [^111In]DOTA-Rituxan Fab: conjugate of [^111In]DOTA-Rituxan Fab (NPL 11)
accumulation in the kidneys [2]: highly accumulated in the kidneys

B3: [Gd/DOTA-NH-CH2-(1,4-Ph)-NH-C(═O)-Met-Ile-NH-(CH2)2-(A-3)]p-Fab^2 (Fab, V domains shown)
VH: B2 VH
VL: B2 VL
modifications: labeling may sit on this chain; sites not stated; labeling portion (MW 1187) on amino groups of the Fab, sites and chain not stated; 1-3 per Fab by MS
notes: also called Ex-No 68; Conjugate No. 68
EC50 [7]: 0.31 nM

B5: [Gd/DOTA-[2,5-(1,2,3,4-tetrahydroisoquinoline)]-C(═O)-Met-Gly-Lys*-Z2(#N)]p-Fab^2 (conjugate)
heavy: EVQLVESGGGLVQPGGSLRLSCAASGFNIRDTYMHWVRQAPGKGLEWVARIDPANGNSRYVPKFQGRFTISADTSRNTAYLQMNSLRAEDTAVYYCAPFGYYVSDYAMAYWGQGTLVTVSSASTKGPSVFPLAPSSKSTSGGTAALGCLVKDYFPEPVTVSWNSGALTSGVHTFPAVLQSSGLYSLSSVVTVPSSSLGTQTYICNVNHKPSNTKVDKKVEPKSCD
light: DIQLTQSPSSLSASVGDRVTITCRAGESVDIFGVGFLHWYQQKPGKAPKLLIYRASNLESGIPSRFSGSGSRTDFTLTISSLQPEDFATYYCQQTNEDPYTFGQGTKVEIKRTVAAPSVFIFPPSDEQLKSGTASVVCLLNNFYPREAKVQWKVDNALQSGNSQESVTEQDSKDSTYSLSSTLTLSKADYEKHKVYACEVTHQGLSSPVTKSFNRGEC
Amount of tumor accumulation (tumor-bearing mice) [8]: 4.53 % dose/g
Renal residual amount (tumor-bearing mice) % of dose/tissue [9]: 7.30 % of dose/tissue
Renal residual amount (tumor-bearing mice) Proportion of decrease [9]: 71.74%
Proportion of decrease (amount of Gd contained in the kidneys) ([10]; based on control conjugate Ex-No. 47, about 24 hours): 82.9%
% of dose/tissue (amount of Gd contained per kidney) ([10]; tail vein, 0.02 mg protein per animal, about 24 hours, ICP-MS, mean of 3 cases): 5.3 % of dose/tissue
